The record followed here is PMC9652377.

For the test, the target named is β-arrestin-2-YFP, P32121. The experiment in a line: BRET (CXCR4-RLuc / βarr2-YFP) in HEK293T cells. As to conditions: chain shown with the change; CXCL12 1e-6 M (highest concentration of the curve), 15 min; coel-h 10 min; parent: est. 0.11; read off a plot.
Sequence of β-arrestin-2-YFP, P32121 (P32121 whole entry): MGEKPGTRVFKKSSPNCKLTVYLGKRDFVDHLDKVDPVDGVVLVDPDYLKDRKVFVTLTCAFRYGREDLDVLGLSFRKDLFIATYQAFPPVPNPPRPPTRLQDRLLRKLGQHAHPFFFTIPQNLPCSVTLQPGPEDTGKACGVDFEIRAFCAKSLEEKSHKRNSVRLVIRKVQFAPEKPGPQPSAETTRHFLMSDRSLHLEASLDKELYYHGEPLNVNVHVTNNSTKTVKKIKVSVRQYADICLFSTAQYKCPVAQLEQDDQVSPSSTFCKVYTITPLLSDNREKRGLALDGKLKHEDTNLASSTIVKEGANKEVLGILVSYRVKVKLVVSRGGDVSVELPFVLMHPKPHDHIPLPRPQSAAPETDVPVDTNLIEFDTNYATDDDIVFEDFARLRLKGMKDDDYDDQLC

B1: chemokine receptor CXCR4 WT, CXCR4-RLuc, P61073 V198F + V197M/V198W (protein)
chain: MEGISIYTSDNYTEEMGSGDYDSMKEPCFREENANFNKIFLPTIYSIIFLTGIVGNGLVILVMGYQKKLRSMTDKYRLHLSVADLLFVITLPFWAVDAVANWYFGNFLCKAVHVIYTVNLYSSVLILAFISLDRYLAIVHATNSQRPRKLLAEKVVYVGVWIPALLLTIPDFIFANVSEADDRYICDRFYPNDLWVMWFQFQHIMVGLILPGIVILSCYCIIISKLSHSKGHQKRKALKTTVILILAFFACWLPYYIGISIDSFILLEIIKQGCEFENTVHKWISITEALAFFHCCLNPILYAFLGAKFKTSAQHALTSVSRGSSLKILSKGKRGGHSSVSTESESSSFHSS
In the case of B1, the response was 0.09 ΔBRET.
